Results taken from US10857209B2, “Lysosomal acid lipase and PPAR gamma ligands as immune therapies for cancer treatment” (Indiana University Research and Technology Corporation, priority 2016, dated 2020).

T1: PPARγ (Mus musculus, UniProt P37238)
T1 construct: host or cells: lal-/- mice (lung)
T1 sequence (P37238 1-505): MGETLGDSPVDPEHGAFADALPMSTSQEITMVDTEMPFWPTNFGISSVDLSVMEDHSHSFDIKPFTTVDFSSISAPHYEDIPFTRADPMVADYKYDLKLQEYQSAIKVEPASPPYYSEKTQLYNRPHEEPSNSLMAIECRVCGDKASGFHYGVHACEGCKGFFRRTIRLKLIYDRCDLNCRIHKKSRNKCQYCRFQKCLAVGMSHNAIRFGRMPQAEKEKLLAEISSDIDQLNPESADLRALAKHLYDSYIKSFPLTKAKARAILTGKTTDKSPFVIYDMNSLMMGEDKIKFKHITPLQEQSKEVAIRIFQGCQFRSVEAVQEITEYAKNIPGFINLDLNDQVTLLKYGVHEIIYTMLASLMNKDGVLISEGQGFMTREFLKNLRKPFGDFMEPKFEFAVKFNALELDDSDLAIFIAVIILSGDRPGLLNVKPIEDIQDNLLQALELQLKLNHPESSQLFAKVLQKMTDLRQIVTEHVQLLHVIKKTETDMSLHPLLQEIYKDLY

B1: hLAL: human lysosomal acid lipase expressed from a doxycycline-controlled tissue-specific transgene in lal−/− mice; never administered as a protein (protein)
chain: GPKPVVFLQHGLLADSSNWVTNLANSSLGFILADAGFDVWMGNSRGNTWSRKHKTLSVSQDEFWAFSYDEMAKYDLPASINFILNKTGQEQVYYVGHSQGTTIGFIAFSQIPELAKRIKMFFALGPVASVAFCTSPMAKLGRLPDHLIKDLFGDKEFLPQSAFLKWLGTHVCTHVILKELCGNLCFLLCGFNERNLNMSRVDVYTTHSPAGTSVQNMLHWSQAVKFQKFQAFDWGSSAKNYFHYNQSYPPTYNVKDMLVPTAVWSGGHDWLADVYDVNILLTQITNLVFHESIPEWEHLDFIWGLDAPWRLYNKIINLMRKYQ
modifications: left off: small tags and cut ends
notes: human lysosomal acid lipase expressed from a doxycycline-controlled tissue-specific transgene in lal−/− mice; never administered as a protein

Legend:
Ly6G+CD11b+ cells = test: Mitochondrial membrane potential (JC-1) in Ly6G+CD11b+ cells by flow cytometry; assay type: cell-based, mouse; conditions: lal−/− Ly6G+CD11b+ cells; 20 μmol/L, 48 hours; vs ethanol
Experimental: The reactive oxygen species (ROS) level and mitochondrial membrane potential in MDSCs was measured by flow cytometry. Briefly, bone marrow cells were first treated with or without 20 μmol/L 9-HODE or ethanol for 2 days. For ROS level detection, cells were harvested, washed, and stained with 2′,7′-dichlorofluorescein diacetate (2 μmol/L, Invitrogen), allophycocyanin cy7-conjugated anti-Ly6G Ab, and phycoerythrin cy7-conjugated anti-CD 11b Ab (eBioscience) at 37° C. for 15 minutes. After PBS wash, the ROS level in Ly6G^+CD11b^+ cells was analyzed using a LSRII machine (BD Biosciences).
For mitochondrial membrane potential measurement, cells were stained with the fluorescent dye JC-1 (2 μmol/L, Molecular Probes, Eugene, Oreg., USA), allophycocyanin cy7-conjugated anti-Ly6G antibody, and phycoerythrin cy7-conjugated anti-CD 11b antibody (eBioscience) at 37° C. for 15 minutes, and then analyzed for phycoerythrin (JC-1 red) and fluorescein isothiocyanate (JC-1 green) fluorescent cells in Ly6G^+CD11b^+ cells by flow cytometry. Cells treated with 50 μmol/L carbonyl cyanide 3-chlorophenylhydrazone for 5 minutes were served as a fluorescein isothiocyanate-positive control.

PPARγ = biological target: T1, PPARγ; conditions: previously reported; cited from earlier work
[1] = Tissue lipid storage in LAP-Tg/KO mice (hepatocyte-specific hLAL expression); assay type: in vivo, mouse; conditions: hepatocyte transgenic expression in lal−/− mice (doxycycline-untreated LAP-Tg/KO)
Text: LAP-tTA/(TetO)7-CMV-hLAL; lal^−/− (LAP-Tg/KO) triple mice of the FVB/N background was established by cross-breeding of LAP-tTA transgenic mice (Jackson's Laboratory, Bar Harbor, Me.) with a previously generated (tetO)7-CMV-hLAL transgenic mice into lal^−/− mice. This triple transgenic mouse model was hepatocyte-specific Tet-off expression of wild-type hLAL in lal^−/− mice under the control of the LAP. All scientific protocols that involved the use of animals were approved by the Institutional Animal Care and Use Committee of Indiana University School of Medicine and followed guidelines established by the Panel on Euthanasia of the American Veterinary Medical Association. Animals were housed in a secured animal facility at Indiana University School of Medicine.
Total tissue lipids were extracted from the liver and small intestine by the Folch method (Folch et al., J Biol. Chem 1957, […]:497-509). Concentrations of CEs and TGs were determined as described in Due et al., J Lipid Res 2001, 42:489-500 and Du et al., J Immunol 2009, 182:1648-1659).
Frozen tissue sections were prepared from the liver and intestine after a standard cryostat procedure. Tissue section slides were stained with Oil Red-O solution (0.5% in propylene glycol) in a 60° C. oven for 10 minutes and placed in 85% propylene glycol for 1 minute; slides were counter-stained in hematoxylin.

cytokines and chemokines = test: Cytokines and chemokines in BALF and plasma (ELISA) and lung (RT-PCR) of CCSP-Tg/KO mice; assay type: in vivo, mouse
Experimental: BALF was collected by 1 mL PBS. The expression levels of IL-6, GM-CSF, MCP-1 and TNFα in the BALF and plasma were measured using ELISA kits (BD Biosciences, San Jose, Calif.) according to the manufacturer's instructions.
Total RNAs were purified from lungs of lal^+/+, lal^−/− and CCSP-Tg/KO triple mice using RNeasy Mini Kits according to the manufacturer's instruction (Qiagen, Valencia, Calif., USA). Quantitative (q)RT-PCR was performed as described previously (Wu et al., Blood. 2012; 119:115-26). Analysis was performed by the 2^−ΔΔCT method. Primers of mIL-6, mIL-1β, mIL-10, mGM-CSF, mM-CSF, mTNF-α, mMCP-1, mCCL5 and GAPDH were used for real-time PCR.

B16 melanoma cells = test: B16 melanoma growth and metastasis in myeloid-specific hLAL Tg/KO triple mice; assay type: in vivo, mouse; conditions: myeloid-specific expression
Text: lal^+/+ and lal^−/− mice of the FVBN background were bred in house. c-fms-rtTA/(TetO)7-CMV-hLAL; lal^−/− (Tg/KO) triple mice of the FVBN background is a previously generated triple transgenic mouse model with myeloid-specific doxycycline-inducible expression of wild-type human LAL (hLAL) in lal^−/− mice under the control of the c-fms promoter. All scientific protocols involving the use of animals have been approved by the Institutional Animal Care and Use Committee of Indiana University School of Medicine and followed guidelines established by the Panel on Euthanasia of the American Veterinary Medical Association. Animals were housed under Institutional Animal Care and Use Committee-approved conditions in a secured animal facility at the Indiana University School of Medicine.
Four-month-old lal^+/+ or lal^−/− mice were inoculated with 1×10^5 B16 melanoma cells subcutaneously into the flank region, and tumor size (length×width^2×π/6) was monitored every week for 3 weeks. For intravenous injection of B16 melanoma cells, 5×10^5 B16 melanoma cells in 200 μl PBS were injected into 4-month-old lal^+/+ or lal^−/− mice via tail vein. A pilot study was performed to determine the best ratio between MDSCs and B16 melanoma cells. For co-injection of MDSCs and B16 melanoma cells via tail vein, 2×10^6 MDSCs and 5×10^5 B16 melanoma cells were mixed and incubated at 37° C. and 5% CO2 for 30 minutes. […]

[2] = doxycycline-treated CCSP-Tg/KO mice
[3] = doxycycline-treated vs untreated CCSP-Tg/KO mice

| Molecule | mitochondrial membrane potential (Ly6G+CD11b+ cells) | lal−/− pulmonary inflammation and aberrant gene expression (PPARγ) | lipid storage (cholesterol and triglyceride) in liver, spleen and small intestine [1] | lung GM-CSF mRNA level (cytokines and chemokines; [2]) | lung mRNA levels of IL-6, MCP-1, TNFα, CCL5, IL-10 and IL-1β (cytokines and chemokines; [2]) | IL-6, GM-CSF, MCP-1 and TNFα concentrations in BALF (ELISA) (cytokines and chemokines; [3]) | IL-6, GM-CSF, MCP-1 and TNFα levels in the plasma (cytokines and chemokines; [3]) | decrease of tumor volume vs untreated mice (B16 melanoma cells; doxycycline-treated Tg/KO triple mice, B16 s.c., 2 weeks post-injection) | melanoma colonies in the lungs (B16 melanoma cells; doxycycline-treated vs untreated Tg/KO triple mice, B16 i.v., 2 weeks) |
| --- | --- | --- | --- | --- | --- | --- | --- | --- | --- |
| 9-hydroxyoctadecadienoic acid [9-HODE] | partially recovered | significantly rescued | – | – | – | – | – | – | – |
| B1 | – | – | completely cleaned up | remained unchanged | significantly down-regulated | significantly decreased | similar | 50% | reduced number of melanoma colonies in the lungs |
